B1: Phytochrome B (Arabidopsis thaliana (Mouse-ear cress)), P14713 (parent)
chain: MVSGVGGSGGGRGGGRGGEEEPSSSHTPNNRRGGEQAQSSGTKSLRPRSNTESMSKAIQQYTVDARLHAVFEQSGESGKSFDYSQSLKTTTYGSSVPEQQITAYLSRIQRGGYIQPFGCMIAVDESSFRIIGYSENAREMLGIMPQSVPTLEKPEILAMGTDVRSLFTSSSSILLERAFVAREITLLNPVWIHSKNTGKPFYAILHRIDVGVVIDLEPARTEDPALSIAGAVQSQKLAVRAISQLQALPGGDIKLLCDTVVESVRDLTGYDRVMVYKFHEDEHGEVVAESKRDDLEPYIGLHYPATDIPQASRFLFKQNRVRMIVDCNATPVLVVQDDRLTQSMCLVGSTLRAPHGCHSQYMANMGSIASLAMAVIINGNEDDGSNVASGRSSMRLWGLVVCHHTSSRCIPFPLRYACEFLMQAFGLQLNMELQLALQMSEKRVLRTQTLLCDMLLRDSPAGIVTQSPSIMDLVKCDGAAFLYHGKYYPLGVAPSEVQIKDVVEWLLANHADSTGLSTDSLGDAGYPGAAALGDAVCGMAVAYITKRDFLFWFRSHTAKEIKWGGAKHHPEDKDDGQRMHPRSSFQAFLEVVKSRSQPWETAEMDAIHSLQLILRDSFKESEAAMNSKVVDGVVQPCRDMAGEQGIDELGAVAREMVRLIETATVPIFAVDAGGCINGWNAKIAELTGLSVEEAMGKSLVSDLIYKENEATVNKLLSRALRGDEEKNVEVKLKTFSPELQGKAVFVVVNACSSKDYLNNIVGVCFVGQDVTSQKIVMDKFINIQGDYKAIVHSPNPLIPPIFAADENTCCLEWNMAMEKLTGWSRSEVIGKMIVGEVFGSCCMLKGPDALTKFMIVLHNAIGGQDTDKFPFPFFDRNGKFVQALLTANKRVSLEGKVIGAFCFLQIPSPELQQALAVQRRQDTECFTKAKELAYICQVIKNPLSGMRFANSLLEATDLNEDQKQLLETSVSCEKQISRIVGDMDLESIEDGSFVLKREEFFLGSVINAIVSQAMFLLRDRGLQLIRDIPEEIKSIEVFGDQIRIQQLLAEFLLSIIRYAPSQEWVEIHLSQLSKQMADGFAAIRTEFRMACPGEGLPPELVRDMFHSSRWTSPEGLGLSVCRKILKLMNGEVQYIRESERSYFLIILELPVPRKRPLSTASGSGDMMLMMPY
partner: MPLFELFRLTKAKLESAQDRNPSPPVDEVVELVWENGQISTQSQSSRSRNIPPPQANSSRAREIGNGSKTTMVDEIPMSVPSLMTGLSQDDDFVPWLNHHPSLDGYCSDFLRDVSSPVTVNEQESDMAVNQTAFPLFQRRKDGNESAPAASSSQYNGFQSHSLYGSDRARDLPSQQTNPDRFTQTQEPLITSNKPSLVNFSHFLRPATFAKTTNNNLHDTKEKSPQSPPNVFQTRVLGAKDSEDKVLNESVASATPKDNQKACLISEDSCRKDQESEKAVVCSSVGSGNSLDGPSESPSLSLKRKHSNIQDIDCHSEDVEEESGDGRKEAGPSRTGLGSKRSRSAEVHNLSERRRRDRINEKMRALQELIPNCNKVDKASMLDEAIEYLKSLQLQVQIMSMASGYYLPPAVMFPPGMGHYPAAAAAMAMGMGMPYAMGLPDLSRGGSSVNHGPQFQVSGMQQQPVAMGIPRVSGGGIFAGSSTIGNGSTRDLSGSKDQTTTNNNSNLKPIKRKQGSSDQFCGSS

Variants of: B1
Settings: with pif3_arath PIF3, O80536

effect of a mutation on the interaction | Variant
decreasing interaction | A750V
decreasing interaction | E812K
decreasing interaction | G767R

— IntAct's records for PubMed 10466729
